Results taken from patent US20070196354A1, “Method of treating diabetes by inhibiting degradation of at least one of crebl1, atf6, and hnf-4 alpha by htra” (priority 2003, published 2007).

Target: T1, ATF6 (Homo sapiens, UniProt P18850)
T1 construct: expressed in transfected cells; host or cells: HEK293T
T1 sequence (P18850 1-670): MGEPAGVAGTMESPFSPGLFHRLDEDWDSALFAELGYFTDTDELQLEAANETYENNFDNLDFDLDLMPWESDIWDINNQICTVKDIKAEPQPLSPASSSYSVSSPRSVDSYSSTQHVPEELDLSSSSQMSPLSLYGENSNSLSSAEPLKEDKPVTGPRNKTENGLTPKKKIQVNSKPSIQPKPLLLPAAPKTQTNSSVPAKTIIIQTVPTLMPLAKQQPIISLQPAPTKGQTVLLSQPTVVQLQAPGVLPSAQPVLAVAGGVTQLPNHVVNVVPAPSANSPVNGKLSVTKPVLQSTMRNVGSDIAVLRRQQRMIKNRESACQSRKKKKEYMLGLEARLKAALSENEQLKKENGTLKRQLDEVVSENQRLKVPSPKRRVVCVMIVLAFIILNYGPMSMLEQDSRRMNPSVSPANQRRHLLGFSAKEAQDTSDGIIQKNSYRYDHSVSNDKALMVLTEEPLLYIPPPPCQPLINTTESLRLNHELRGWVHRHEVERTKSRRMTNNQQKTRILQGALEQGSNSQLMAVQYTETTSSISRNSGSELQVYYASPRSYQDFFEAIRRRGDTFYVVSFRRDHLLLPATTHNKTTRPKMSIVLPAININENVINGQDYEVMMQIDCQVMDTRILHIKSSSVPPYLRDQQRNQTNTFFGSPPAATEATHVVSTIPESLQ
Assay: In vitro protease assay, ATF6 captured on resin
Format: biochemical
Details: 50 μg/ml, 37° C., four hours (4 h) or overnight (O/N), anti-c-Myc detection
Method: CREBL1 and ATF6 which were captured on the resin were used in the experiments in order to eliminate the influence of proteinaceous impurities contained in the soluble fractions prepared from the cells obtained by transfecting an expression plasmid of CREBL1 or ATF6. Three hundreds μl of each soluble fraction of CREBL1 and ATF6 was dispensed to six tubes (Nos. 1 to 6), followed by adding 20 μl of protein G sepharose 4 FF (Amersham) of 50% slurry that had been subjected to blocking with BSA, to each of tubes, subjected to overturned mixing at 4° C. for 1 hour, and then subjected to centrifugation (10,000 rpm, 10 sec, 4° C.) to collect the supernatant, and thus the pre-treatment (pre-clean) was performed. The resultant supernatant was mixed with 1.7 μl (2 μg) of anti-Myc antibody (Invitrogen), subjected to overturned mixing at 4° C. for 3 hours, followed by adding 20 μl of protein G sepharose 4 FF that had been subjected to blocking with BSA, and then subjected to overturned mixing at 4° C. overnight. Thus, CREBL1 and ATF6 were respectively captured on protein G sepharose 4 FF. […]

B1: mature HtrA2: SEQ ID NO: 4; mature protein generated from HtrA2 precursor by cleavage of N-terminal 133 residues, has protease activity (protein, listed as Homo sapiens)
chain: MAVPSPPPASPRSQYNFIADVVEKTAPAVVYIEILDRHPFLGREVPISNGSGFVVAADGLIVTNAHVVADRRRVRVRLLSGDTYEAVVTAVDPVADIATLRIQTKEPLPTLPLGRSADVRQGEFVVAMGSPFALQNTITSGIVSSAQRPARDLGLPQTNVEYIQTDAAIDFGNSGGPLVNLDGEVIGVNTMKVTAGISFAIPSDRLREFLHRGEKKNSSSGISGSQRRYIGVMMLTLSPSILAELQLREPSFPDVQHGVLIHKVILGSPAHRAGLRPGDVILAIGEQMVQNAEDVYEAVRTQSQLAVQIRRGRETLTLYVTPEVTE
modifications: mature HtrA2
  degradation of ATF6 (band by western blotting): the band of ATF6 was reduced significantly
